To fix the notation:
B1: G-rich sequence factor 1 (Homo sapiens), Q12849 (parent)
chain: MAGTRWVLGALLRGCGCNCSSCRRTGAACLPFYSAAGSIPSGVSGRRRLLLLLGAAAAAASQTRGLQTGPVPPGRLAGPPAVATSAAAAAAASYSALRASLLPQSLAAAAAVPTRSYSQESKTTYLEDLPPPPEYELAPSKLEEEVDDVFLIRAQGLPWSCTMEDVLNFFSDCRIRNGENGIHFLLNRDGKRRGDALIEMESEQDVQKALEKHRMYMGQRYVEVYEINNEDVDALMKSLQVKSSPVVNDGVVRLRGLPYSCNEKDIVDFFAGLNIVDITFVMDYRGRRKTGEAYVQFEEPEMANQALLKHREEIGNRYIEIFPSRRNEVRTHVGSYKGKKIASFPTAKYITEPEMVFEEHEVNEDIQPMTAFESEKEIELPKEVPEKLPEAADFGTTSSLHFVHMRGLPFQANAQDIINFFAPLKPVRITMEYSSSGKATGEADVHFETHEDAVAAMLKDRSHVHHRYIELFLNSCPKGK

In this experiment the parent is B1. As to conditions: with psd10_human PSMD10, O75832.
Chain of psd10_human PSMD10, O75832 (O75832 whole entry): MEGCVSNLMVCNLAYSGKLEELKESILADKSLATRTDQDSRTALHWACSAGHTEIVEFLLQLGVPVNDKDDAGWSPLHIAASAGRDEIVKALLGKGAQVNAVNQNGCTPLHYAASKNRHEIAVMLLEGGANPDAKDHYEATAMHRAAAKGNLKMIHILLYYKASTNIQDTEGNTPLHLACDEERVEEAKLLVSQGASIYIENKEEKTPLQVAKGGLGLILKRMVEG
In the case of E144A;E145A;D147A, the “effect of a mutation on the interaction” value was “disrupting interaction strength”.

(Values after IntAct's records for PubMed 24338975.)
